This series concerns the molecule itself. Put plainly: crystal structure.

B1: Clostridium thermocellum polynucleotide kinase (CthPnk) mutant D38N (enzyme, UniProt A3DJ38 1-170, looked up)
chain: MKLTIPELSLVVLIGSSGSGKSTFAKKHFKPTEVISSNFCRGLVSDDENDQTVTGAAFDVLHYIVSKRLQLGKLTVVDATNVQESARKPLIEIAKDYHCFPVAVVFNLPEKVCQERNKNRTDRQVEEYVIRKHTQQMKKSIKGLQREGFRYVYILNSPEEVEEVVFERQP
As to B1, the binding result is “binds”.

These data come from publication PMC3902929 (Nucleic Acids Research, 2013).
